B1: Tudor domain-containing protein 3, residues 554 to 611; numbered along this chain, Q9H7E2 (parent)
chain: KMWKPGDECFALYWEDNKFYRAEVEALHSSGMTAVVKFIDYGNYEEVLLSNIKPIQTE

Variants of: B1
Test: abundance fitness (aPCA) (normalised: wild type 0, dead -1); higher = more abundant; growth selection in yeast, the domain comes from the species named
Conditions: Homo sapiens

Abundance fitness of substitutions, site by site:
Y20: P -0.918, D -1.01, L -0.171, G -0.732, N -0.68, M -0.297
F19: W -0.008, M -0.386, Y -0.123, Q -0.599, A -0.831
V36: H -0.838, S -0.913, C -0.584, T -0.777, R -0.88, N -1.11
K4: F -0.221, W -0.543, S -0.149, I -0.415, H -0.335, A -0.092, G -0.486, Q -0.158
L49: E -0.924, Y -0.464, P -0.922, D -0.886, F -0.602, S -0.645
N43: G -0.162, S -0.045, R 0.091, F -0.052, C -0.059, K 0.093, D -0.259
E8: N -0.077, V -0.122, P -0.032, Q -0.055, T -0.083, K 0.017
G42: A -0.305, L -0.492, D 0.059, P -0.11, Q -0.345
L27: E -0.913, Q -1.13, Y -0.911, F -0.716, T -0.301, P -0.973
E25: K 0.051, W -0.101, P -0.659, N -0.111, F -0.041, G -0.315, L -0.038, M -0.025
E15: W -0.27, H -0.251, G -0.142, P -0.185, I -0.156, L -0.064, V -0.026
H28: I -0.508, M -0.118, G 0.034, F -0.619, R -0.183, T -0.065
W3: V -0.053, D -1.31, F 0.031, C -0.509
D16: M -0.754, R -0.308, I -1.04, A -0.529, Y -0.691, N -0.417, V -0.722
F10: C -0.2, H -0.255, V -0.128, P -0.923, T -0.383
K1: I 0.134, R -0.326, W -0.336, E -0.143, Q -0.657, N 0.085, C -0.261, H -0.003
K53: E -0.261, C -0.238, V -0.194, A -0.276, M -0.192, F -0.229
E23: G -0.596, S 0.013, F -0.1, I 0.143, T -0.004, M -0.005, P -0.838, N 0.059
Q56: D -0.061, H 0.041, V -0.02, L -0.07, T -0.003
L48: T -0.218, D -0.177, N -0.104, E -0.136
K18: L -0.254, R -0.095, P -0.949, W -0.736, N -0.228, A -0.126
K37: M -0.741, P -0.948, E -0.757, Q -0.359, S -0.616, A -0.996, L -0.719, D -0.74, H -0.32, R -0.064
F38: M -0.722, W -0.416, P -0.941, K -1.13, H -0.94, D -0.764
R21: N -0.678, Y -0.662, M -0.506, P -0.206, W -0.766
A22: T -0.865, M -0.908, H -0.936, Q -0.955, P -0.976, F -0.977
V35: T 0.104, A -0.277, P -0.973, H -0.403, L -0.011, R 0.129, Y -0.092, E -0.227
S29: D 0.014, R -0.133, H -0.05

— the Human Domainome abundance scans (Beltran et al. 2025)
